{"source": "patent US20190194313A1", "about": "(JOINT STOCK COMPANY BIOCAD, published 2019)", "binders": {"B1": {"name": "BCD089 antibody (anti-IL-6sR) (antibody, IgG1, V domains shown)", "VH": "QVQLVQSGGGLVQPGGSLRLSCAASGFTFSSYYMSWVRQAPGKGLEWVSGIYSDGTTHYGDSVKGRFTISRDNAKNTVYLQLNSLRAEDTAMYYCAKGAGPTWWYALDAWGQGTLVTVSS", "VL": "DIQLTQSPSSVSVSVGERVTIDCKSSQSVLSASNTYLNWYQQKPGQAPQLLIYYASTRESGVPDRFSGSGSGTDFTLTISSLQAEDAAVYYCQQAYRAPVTFGQGTKLEIKR", "notes": "None of these passages names BCD089; also called BCD89; BCD-BCD-089 IgG1"}}, "key": {"Guinea Pig sIL6R": {"target": "T1, Guinea Pig sIL6R (guinea pig)", "T1 construct": "extracellular domain; also called guinea pig IL-6R; guinea pig IL-6R alpha subunit", "assay": "BLI, Octet Red 96, BCD89 immobilised on AR2G sensors, receptor titrated from 126 nM to 2 nM, 1:1 model", "source_text": "(§1) The interaction of the selected anti-IL6R with interleukin-6 receptors of cynomolgus, guinea pig, dog and mouse was examined with ELISA (FIG. 11, 12). The binding affinity constants of BCD89 antibody to IL-6sR alpha subunit of a human, cynomolgus, guinea pig, dog and mouse were obtained with Octet Red 96 (by ForteBio). BCD89 was nonspecifically immobilized onto the surface of amino reactive sensors of the second generation (AR2G) using standard protocol according to manufacturer's instruction for preparation and immobilization of AR2G sensors. Analysis was conducted at 30° C. using PBS comprising 0.1% Tween-20 and 0.1% BSA as a working buffer. Titration of IL-6R of a human, cynomolgus, guinea pig, dog, rabbit and mouse was performed using a running buffer from concentration of 126 nM to 2 nM, spacing 2.\n(§2) Binding curves, after subtracting a reference signal, were analyzed using Octet Data Analysis software (Version 7.0) in accordance with the standard procedure and using 1:1 interaction model."}, "[1]": {"target": "T2, Human sIL6R (recombinant IL-6sR alpha subunit of a human, Example 13) (human, UniProt P08887 20-365)", "T2 construct": "extracellular domain; also called recombinant IL-6R of a human; human IL-6R alpha subunit", "T2 sequence (looked up)": "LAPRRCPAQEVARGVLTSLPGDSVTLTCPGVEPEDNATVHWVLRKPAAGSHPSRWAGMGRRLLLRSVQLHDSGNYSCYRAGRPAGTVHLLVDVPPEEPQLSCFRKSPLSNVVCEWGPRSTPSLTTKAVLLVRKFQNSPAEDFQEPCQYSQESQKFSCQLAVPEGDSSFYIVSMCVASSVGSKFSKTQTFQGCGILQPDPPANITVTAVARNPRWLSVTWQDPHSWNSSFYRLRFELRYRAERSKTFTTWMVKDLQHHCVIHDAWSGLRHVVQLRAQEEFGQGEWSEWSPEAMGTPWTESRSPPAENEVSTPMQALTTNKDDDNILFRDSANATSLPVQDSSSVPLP", "assay": "BLI, Octet Red 96, BCD89 immobilised on AR2G sensors, receptor titrated from 126 nM to 2 nM, 1:1 model", "source_text": "as §1, §2"}, "Cynomolgus sIL6R": {"target": "T3, Cynomolgus sIL6R (cynomolgus, UniProt A0A2K5WN54 60-396)", "T3 construct": "extracellular domain; also called IL-6sR of a cynomolgus; cynomolgus IL-6R alpha subunit", "T3 sequence": "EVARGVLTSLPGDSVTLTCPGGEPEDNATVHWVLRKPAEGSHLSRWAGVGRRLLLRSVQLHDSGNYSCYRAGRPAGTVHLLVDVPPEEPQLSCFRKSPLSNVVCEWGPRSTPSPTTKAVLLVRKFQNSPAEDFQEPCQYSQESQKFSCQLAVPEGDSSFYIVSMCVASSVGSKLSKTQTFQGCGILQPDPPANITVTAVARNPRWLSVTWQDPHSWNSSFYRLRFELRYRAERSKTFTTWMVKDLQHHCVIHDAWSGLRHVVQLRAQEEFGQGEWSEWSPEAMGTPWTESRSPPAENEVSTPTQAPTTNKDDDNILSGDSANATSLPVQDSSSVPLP", "assay": "BLI, Octet Red 96, BCD89 immobilised on AR2G sensors, receptor titrated from 126 nM to 2 nM, 1:1 model", "source_text": "as §1, §2"}, "Mouse sIL6R": {"target": "T4, Mouse sIL6R (mouse, UniProt P22272 20-364)", "T4 construct": "extracellular domain; also called mouse receptor; mouse IL-6R", "T4 sequence (looked up)": "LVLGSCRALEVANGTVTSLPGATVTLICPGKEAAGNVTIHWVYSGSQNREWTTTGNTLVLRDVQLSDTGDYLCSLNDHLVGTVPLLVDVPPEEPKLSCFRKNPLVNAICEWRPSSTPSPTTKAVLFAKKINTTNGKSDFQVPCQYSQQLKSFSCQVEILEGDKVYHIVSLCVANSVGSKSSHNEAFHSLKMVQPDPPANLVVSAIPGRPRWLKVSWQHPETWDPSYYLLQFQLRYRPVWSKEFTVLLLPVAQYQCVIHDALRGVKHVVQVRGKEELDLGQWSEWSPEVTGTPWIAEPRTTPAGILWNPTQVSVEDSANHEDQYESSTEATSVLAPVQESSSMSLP", "assay": "BLI, Octet Red 96, BCD89 immobilised on AR2G sensors; Table 2 prints '-' for KD", "source_text": "as §1, §2"}}}
{"binder": "B1", "values": [{"measurement": "Kd", "setting": "Guinea Pig sIL6R", "result": 306, "unit": "nM"}, {"measurement": "Kd", "setting": "[1]", "result": 0.663, "unit": "nM"}, {"measurement": "Kd", "setting": "Cynomolgus sIL6R", "result": 2.4, "unit": "nM"}, {"measurement": "binding result", "setting": "Mouse sIL6R", "result": "no binding"}]}
